According to patent US20250276081A1, “Mucin-Active Proteases and Methods of Use” (priority 2022, published 2025):

Assays:
[1] = In vivo toxicity of StcE (maximum tolerated dose, necropsy); set-up: species or system mouse
Method: (§1) In vivo toxicity studies. 10-week-old C57BL/6 mice (bred in-house) were injected with PBS or StcE (0.15 mg/kg or 15 mg/kg) via intravenous injection. 9-week-old female BALB/cJ mice (Jackson Labs) were injected with PBS or 10 mg/kg αHER2-eStcE via intraperitoneal injection. Mice were submitted to the Animal Diagnostic Lab at Stanford University for necropsy and complete blood count (CBC) analyses 3 h post injection.

[2] = Complete blood count (CBC) after StcE injection; assay type: in vivo, mouse; conditions: 3 h, C57BL/6, n=1
Method: as §1

For “StcE: secreted protease of C1 esterase inhibitor, zinc metalloprotease pan mucinase from E. coli O157:H7; SEQ ID NO:1”, which “Necropsy and CBC findings” value ([1]; 3 hours post injection of 15 mg/kg StcE I.V.) is on record?
The value was “hemorrhages underneath the skull, ecchymoses throughout the gastrointestinal tract, neutrophil accumulation in the lungs, and platelet depletion”.

What about the Maximum tolerated dose ([1]; Balb/c and C57BL/6 mice) of the same substance?
The Maximum tolerated dose was 0.25 mg/kg.

And the “Toxicity above the maximum tolerated dose” value ([1]; doses higher than 0.25 mg/kg)?
The value was “systemic toxicity”.

And the Basophil absolute ([2]; StcE 0.15 mg/kg I.V.)?
Its Basophil absolute is 0.

And the Basophils ([2]; StcE 0.15 mg/kg I.V.)?
Its Basophils is 0%.

What about the Eosinophil absolute ([2]; StcE 0.15 mg/kg I.V.) of the same substance?
The Eosinophil absolute was 44.

And the Eosinophils ([2]; StcE 0.15 mg/kg I.V.)?
Its Eosinophils is 1%.

What about the “Hematocrit (HCT)” value ([2]; StcE 0.15 mg/kg I.V.) of the same substance?
Its value is 45.5%.

What about the “Hemoglobin (HGB)” value ([2]; StcE 0.15 mg/kg I.V.) of the same substance?
The value was 14 gm/dL.

And the “Immature reticulocyte fraction (IRF)” value ([2]; StcE 0.15 mg/kg I.V.)?
The value was 54.9%.

And the “Low fluorescence reticulocytes (LFR)” value ([2]; StcE 0.15 mg/kg I.V.)?
Its value is 45.1%.

And the Lymphocyte absolute ([2]; StcE 0.15 mg/kg I.V.)?
The Lymphocyte absolute was 4085.

What about the Lymphocytes ([2]; StcE 0.15 mg/kg I.V.) of the same substance?
The Lymphocytes was 92%.

What about the “MHC concentration (MCHC)” value ([2]; StcE 0.15 mg/kg I.V.) of the same substance?
The value was 30.8 g/dL.

What about the “Mean corpuscular hemoglobin (MCH)” value ([2]; StcE 0.15 mg/kg I.V.) of the same substance?
The value was 14.3 pg.

And the “Mean corpuscular volume (MCV)” value ([2]; StcE 0.15 mg/kg I.V.)?
Its value is 46.5 fL.

And the “Mean platelet volume (MPV)” value ([2]; StcE 0.15 mg/kg I.V.)?
Its value is 7.3 fL.

What about the “Medium fluorescence reticulocytes (MFR)” value ([2]; StcE 0.15 mg/kg I.V.) of the same substance?
The value was 18.7%.

What about the Monocyte absolute ([2]; StcE 0.15 mg/kg I.V.) of the same substance?
The Monocyte absolute was 133.

What about the Monocytes ([2]; StcE 0.15 mg/kg I.V.) of the same substance?
Its Monocytes is 3%.

What about the Neutrophil absolute ([2]; StcE 0.15 mg/kg I.V.) of the same substance?
The Neutrophil absolute was 178.

And the Neutrophils ([2]; StcE 0.15 mg/kg I.V.)?
The Neutrophils was 4%.

And the Platelet count ([2]; StcE 0.15 mg/kg I.V.)?
Its Platelet count is 1345 K/μL.

What about the “Platelet distribution width (PDW)” value ([2]; StcE 0.15 mg/kg I.V.) of the same substance?
The value was 8.9 fL.

And the Platelet estimate ([2]; StcE 0.15 mg/kg I.V.)?
The Platelet estimate was “Adequate”.

And the “Platelet-large cell ratio (P-LCR)” value ([2]; StcE 0.15 mg/kg I.V.)?
The value was 8.7%.

And the RBC morphology ([2]; StcE 0.15 mg/kg I.V.)?
Its RBC morphology is “Normal”.

And the “Red blood cell (RBC)” value ([2]; StcE 0.15 mg/kg I.V.)?
The value was 9.78 M/μL.

What about the “Red cell distribution width (RDW)” value ([2]; StcE 0.15 mg/kg I.V.) of the same substance?
Its value is 19.2%.

And the Reticulocyte absolute ([2]; StcE 0.15 mg/kg I.V.)?
The Reticulocyte absolute was 442056 µL⁻¹.

What about the Reticulocyte count ([2]; StcE 0.15 mg/kg I.V.) of the same substance?
The Reticulocyte count was 4.52%.

And the “White blood cell (WBC)” value ([2]; StcE 0.15 mg/kg I.V.)?
Its value is 4.44 K/μL.

What about the Basophil absolute ([2]; StcE 15 mg/kg I.V.) of the same substance?
Its Basophil absolute is 0.

What about the Basophils ([2]; StcE 15 mg/kg I.V.) of the same substance?
Its Basophils is 0%.

What about the Eosinophil absolute ([2]; StcE 15 mg/kg I.V.) of the same substance?
The Eosinophil absolute was 39.

What about the Eosinophils ([2]; StcE 15 mg/kg I.V.) of the same substance?
The Eosinophils was 1%.

What about the “Hematocrit (HCT)” value ([2]; StcE 15 mg/kg I.V.) of the same substance?
The value was 58.9%.

And the “Hemoglobin (HGB)” value ([2]; StcE 15 mg/kg I.V.)?
Its value is 18.3 gm/dL.

What about the “Immature reticulocyte fraction (IRF)” value ([2]; StcE 15 mg/kg I.V.) of the same substance?
Its value is 52.3%.

And the “Low fluorescence reticulocytes (LFR)” value ([2]; StcE 15 mg/kg I.V.)?
Its value is 47.7%.

What about the Lymphocyte absolute ([2]; StcE 15 mg/kg I.V.) of the same substance?
The Lymphocyte absolute was 1458.

And the Lymphocytes ([2]; StcE 15 mg/kg I.V.)?
Its Lymphocytes is 37%.

What about the “MHC concentration (MCHC)” value ([2]; StcE 15 mg/kg I.V.) of the same substance?
Its value is 31.1 g/dL.

And the “Mean corpuscular hemoglobin (MCH)” value ([2]; StcE 15 mg/kg I.V.)?
The value was 14 pg.

And the “Mean corpuscular volume (MCV)” value ([2]; StcE 15 mg/kg I.V.)?
Its value is 44.9 fL.

And the “Mean platelet volume (MPV)” value ([2]; StcE 15 mg/kg I.V.)?
Its value is 6.8 fL.

And the “Medium fluorescence reticulocytes (MFR)” value ([2]; StcE 15 mg/kg I.V.)?
Its value is 28%.

And the Monocyte absolute ([2]; StcE 15 mg/kg I.V.)?
Its Monocyte absolute is 315.

What about the Monocytes ([2]; StcE 15 mg/kg I.V.) of the same substance?
The Monocytes was 8%.

And the Neutrophil absolute ([2]; StcE 15 mg/kg I.V.)?
Its Neutrophil absolute is 2128.

What about the Neutrophils ([2]; StcE 15 mg/kg I.V.) of the same substance?
The Neutrophils was 54%.

And the Platelet count ([2]; StcE 15 mg/kg I.V.)?
Its Platelet count is 82 K/μL.

And the “Platelet distribution width (PDW)” value ([2]; StcE 15 mg/kg I.V.)?
Its value is 7.2 fL.

What about the Platelet estimate ([2]; StcE 15 mg/kg I.V.) of the same substance?
The Platelet estimate was “Decreased”.

What about the “Platelet-large cell ratio (P-LCR)” value ([2]; StcE 15 mg/kg I.V.) of the same substance?
The value was 5.5%.

What about the RBC morphology ([2]; StcE 15 mg/kg I.V.) of the same substance?
The RBC morphology was “Normal”.

And the “Red blood cell (RBC)” value ([2]; StcE 15 mg/kg I.V.)?
The value was 13.11 M/μL.

What about the “Red cell distribution width (RDW)” value ([2]; StcE 15 mg/kg I.V.) of the same substance?
The value was 22.2%.

And the Reticulocyte absolute ([2]; StcE 15 mg/kg I.V.)?
Its Reticulocyte absolute is 860016 µL⁻¹.

And the Reticulocyte count ([2]; StcE 15 mg/kg I.V.)?
The Reticulocyte count was 6.56%.

And the “White blood cell (WBC)” value ([2]; StcE 15 mg/kg I.V.)?
The value was 3.94 K/μL.
